Assay: soluble on expression in E. coli; label from the status in PepcDB or PDB records

Sequence | soluble on expression in E. coli
MGSDKIHHHHHHMTTINFLGGCREVGRSAVMVDGIMIDYGVKPSDPPEFPLNGLSPRAVILSHGHLDHIGVAPNLMYYDPEVILTPPSHELSMILLRDSMKIMHPPPFTKRELRQFESNIREVEYEEPITVGDYEVEFFNAGHIPGSASIHMRGDVNILYSGDIRLEETRLLEGANTDYPETDILIVESTYFGTEHPDRKELERAFVESVIDTLDMGGHAIIPAFAVGRTQEVLMILERYGITPYVDGMGKEVAQVIQRHPDFIRSPKELKRAVRNAIPVEWRQRERVLEEPSAVVTTAGMLNGGPAMFYISRLYNDEKSKILLTGYQVEGTNGDMALKTGMLNLGTRVVKLKMGVEQYDFSAHADDRQLKEYVKRVVDRGAEVVFTIHGEETEAFAEWIKDNIGVEAYAPKNGEIYVI | not soluble
MGRIFLDHIGGTRLFSCANCDTILTNRSELISTRFTGATGRAFLFNKVVNLQYSEVQDRVMLTGRHMVRDVSCKNCNSKLGWIYEFATEDSQRYKEGRVILERALVRESEGFEEHVPSDNS | soluble
MAELTETSPETPETTEAIRAVEAFLNALQNEDFDTVDAALGDDLVYENVGFSRIRGGRRTATLLRRMQGRVGFEVKIHRIGADGAAVLTERTDALIIGPLRVQFWVCGVFEVDDGRITLWRDYFDVYDMFKGLLRGLVALVVPSLKATL | soluble
MSLGLDNLYRVLDANVNRTSEGLRVLEDLARFCYNDRLLSKRIKELRHSVRKNIAGLVPNLISSRDSVNDVGLKTSMEMDIDRKASLLDLARANFKRVQEALRTVEESLKVLNENDLSKFYESCRFETYSIEKEYFKVLTFENKKGRLNEIITGLYCITSEEHSKGRSNIEVVEKMIKAGVKIIQYREKKKSLLEKYNECKKIREMTLDSGVTFIVNDNIDIAMMVKADGVHIGQDDLPIEKVRELVGDEMIIGISTHSPTQAEDAVRRGADYIGVGPLYRTYTKEDVCEPVGLEYLDYVVKNINIPYVAIGGIKEHNMDEVLARGARCIAMVTEIVGADDIEEKISKVKSKFSRGEGHHHHHH | soluble
MSLTQSHHDHVEKQFSSQASEYLTSTVHASGRDLQRLAVRLADYPDASVLDMGCGAGHASFVAAQNVSTVVAYDLSAHMLDVVAQAAEARQLKNITTRQGYVESLPFADNAFDIVISRYSAHHWHDVGAALREVNRILKLGGKLIVMDVMSPGHPVRDIWLQTVEALRDISHTRNYASGEWLTLISEANLIVDNLITDKLPLEFSSWVARMRTPEALVDAIRIYQQSASTEVKTYFALQNEGHHHHHH | not soluble
MSLIILDNHFHVDPNHGLFLEAVKQFQRAGGTHLIVVYKTAHDYGFPGLKAEDFMKAMDFHIELVEKINRETQVKAYAVVGVHPAEFDYLARNKGLEFARNEVMKALEYAQKLCLEGKAVGIGEVGRPHYEVPQQIWEVSIEIMKYAMELAKDADCAVQLHTESFNEEKFRELGEYIREVGIKPYKVVKHFSPPLVNVAKEVGVFPSIIASKKNIEEAIKQGNRFLMETDYIDDKRRPGAVLGPKTVPKRTKEFLQRGIFTEEDVYKIHVENPKKVYGIEIEGHHHHHH | soluble
MAIMRVNPTRMELTRLKKRLQVARRGHKLLKDKLDELMKQFLDLVRKNKELREKVEEMLMKAHQDFLIARAVMSSEGLEAALMLPKQSISLDVSTQNIMSVEVPVLKFTTSSSDESDIYPYGFASTSGELDGAILTLSKVLPYMLELAQMEKSSQLLAQEIEKTRRRVNALEYVMIPQLTETIKYISMKLDENERGNITRLMKVKDMMLEQAHNFKEKLNEA | soluble
MINIDPPSGDCPASGGSSTHNIVSESESRLAFKVKSSNNESYRVRPVYGFVDAKGKAKLDVNRLAGPPKEDKLVIQYARVPADETDPKAPFAAGAQQGEVVVKMVAT | not soluble
MASIINKQIISPTGRNMEIINYEILKKYPLCDRCFGRLYAKLLHTTNTERGRALKLYKALELEAKIKKAKEKGINYEEELELLKALAKSGVDEIRLEDIEIEKENCPWCRGIFNKQKMEKLLNKAIELLKEYDFDTFLIGTHIPEEIKDLEKEIETEFMESIKQEFGREFGKMLAVRLDKAPDKEYPDIVVHINPYTEEIYLQINPLFIKGRYRKLVRGIPQTRWPCRKCRGKGCELCNYTGKKYPISVEEIIAKPFLEATKGVDAKFHGAGREDIDVRMLGDGRPFVLEIKEPKIRKIDLNKIAEEINKDGRVEVLNLEFGVRKDKVIFKNTPHRKTYRALVECSDKITDEELKLLEKELENRTIYQKTPKRVLHRRADLERIRKVYKVKTSKVDDNHFEMIIYCDGGLYIKELISGDDGRTNPSVSSILNKNCICKELDVLKIHDNNLLEKG | soluble
MSLSQASTVCALNDHLPNTVLRLPLKYPSTNKELKSHEYFESQIAYTGCLIATTTHMVDHISWRLNNDLKTITLTPICISNPFQLECRTISLLLPSQVYPHCIDAVYHGEEGGYLVVDVIDENYLWITLRIEMNDFLHNTKNFRPLTLDQFESWGHISVPYSFELRSNPYCLRVLDERNVVVSLKDGGLLHFQRSSVLADFNVFNCEESAHFHLGGILDGIFKSGRADLTVDGVSSNAAIDATIVPDPSKSLIATLTVSKTIKFWDLKEHSLLRERTIHPQDTNTWLSFGPARYLQCYGNVLGVHSLLQTKHSTSIDFWDVSPLKEDQKSYKILHTVELLSPTINGAPSDSPFSNDIWFIQDFTLKFEKGNFTVLWKSNNSSILTIYDLKNLAENDKPPKLSQWTLSGSEGHHHHHH | soluble
MDDILSAALAESGLDFLCQQSSPTPSTSGSIHDDAGQSFSNNTHTPSVSQFFDETSNDSHSSSAYYTPMATPFVSTEDGGVPTSFFGMDEEDGGCTIMTTAGTSGSNNIDGIEDAGGGMYYPHVKVIPRKHTAPTVNQSEPSTPTVTIVPKKEDPLFETNTADSPTPSGDTSTTASYEGNDGLEDQETTSDRQNPMFVQTARSTDFATKKNQMAEQAHFLRFSVFWQKSGRLDTPSTSATVSPHITSSLTQRSHTSSPASSASEGTVVPPRKKGLPITTGSIVKRTVQTKDGLQTQYLKAFVNENGEKIYKLLSPVAASAVARGTLPPGMGRGGSTIGRGGTMVNKNGERLMVVKNHVGPNGQMLVKRMVSPAGTRIVANGGQGRGQPIYRGT | not soluble
MSDEKKGGETEHINLKVLGQDNAVVQFKIKKHTPLRKLMNAYCDRAGLSMQVVRFRFDGQPINENDTPTSLEMEEGDTIEVYQQQTGG | soluble
MAGWVAKRFWKEASVAEEPGGFAVLLDGRGVRTPAKRPLILPTCALAEAVASEWQAQEGEVRPETMPVTRSANSALDKVAPQFDEVTEMLAAYGGTDLLCYRATAPEALVARQARAWDPVLAWAAERFEAPLETTAGVMHQAQPEASLTRLAEHVRSFSPFQVAGFHDLVAISGSLILGLGVTEGHLLPEEAWELSRVDESWQIEQWGADEEAAEIEAFRRTAFLQAARFYALCGKLAAALEHHHHHH | not soluble
IDSGLSPSVLMASNSGRRSAPPLNLTGLPGTEKLNEKEKELCQVVRLVPGAYLEYKSALLNECHKQGGLRLAQARALIKIDVNKTRKIYDFLIREGYITKA | soluble
MGIFDFLSGQFIDVIHWTDDTRDTMVWRFEREGHEIKYGAKLTVREGQSAVFVHEGQLADVFTPGLYMLETNNMPILTTLNHWDHGFRSPFKSEIYFVNTTRFNNLKWGTKNPIMLRDPEFGPTRIRAFGTYSVRVTDPARFLSEIVGTDGEFTMDEISFQIRNIIVQEFSRVIAASGIPVLDMAANTADLGKLIAAQVALPLTEYGLEMPEFYIENISLPPAVEAALDKRTSMGLAGDLGKFTQYSAAEAMTAAATNPAGGGMAAGLGAGMGMAMAQQMAQPGPWGAAPASRHAAPPPPPVEHVWHVAVDGQTSGPFSKAKMGRMAAEGEITRDTYVWTPGQDGWKRAEDVRELAQLFTILPPPPPPPGALEHHHHHH | soluble
GPGSMRVDVEAVFEKIRPALEVAEVGAWSKTDITTFMSLVSGFCDIQRQQLRARRGKRRDGHDCEQNVDKEGGCEDGCGVRGEDGDKEDEASLEADSVVVLEIRRSLTKLRHYLQKRIPYGSISEPVVPPAPTSPQEGENSCGGRGAYKALQSSKPVEPPVCAVDAFLYLEEDIDALADQGHISREYCRSCGSVDIGLCQFITHSFSLEQLIFLSCFLLPSFGDTSYCLTSDNVWRPRHKNCHTVAAAFSCEHVVEVGSRLGIVPMSCYFASEQQRLLNTRRVTAIELDKELVALQQEVFQKFARGPTAAHLNLVHSDCFEGEGLEALRSADIIILHNIFEYFTASAEEHLRSWKRLRAAVVRSGQLLVCCPPLQETLAAFSEDCVRKVFINEQDKVDFVHVHQSNSNAGRISRKRCRQPPQEHSFTLDQWWRSWVKEIDVEHIRRSFLTAQRFCEEDHPCDSSYGDADDELVKELKDMRVYMVQ | not soluble

From the DeepSol protein solubility set
